Drawing on patent publication US20150099861A1, this text covers lysis in the chromium release assay for one substance.

In this assay the target is CMV peptide 495-503 (pp65) presented on target cells (CMV) (UniProt P06725).

As for “CD8+ T cells educated against pp65 peptide in the IVE assay (untreated) (cells without a defined receptor)”, the lysis in the chromium release assay is greater than 50%.
